Results from patent US20130217572A1, “SPECIFIC DELIVERY OF AGROCHEMICALS” (VRIJE UNIVERSITEIT BRUSSEL, priority 2010, published 2013).

T1: potato lectin (Sigma) (potato, UniProt Q9S8M0 23-323)
T1 construct: Bought glycoprotein, coated on ELISA plates
T1 sequence (looked up): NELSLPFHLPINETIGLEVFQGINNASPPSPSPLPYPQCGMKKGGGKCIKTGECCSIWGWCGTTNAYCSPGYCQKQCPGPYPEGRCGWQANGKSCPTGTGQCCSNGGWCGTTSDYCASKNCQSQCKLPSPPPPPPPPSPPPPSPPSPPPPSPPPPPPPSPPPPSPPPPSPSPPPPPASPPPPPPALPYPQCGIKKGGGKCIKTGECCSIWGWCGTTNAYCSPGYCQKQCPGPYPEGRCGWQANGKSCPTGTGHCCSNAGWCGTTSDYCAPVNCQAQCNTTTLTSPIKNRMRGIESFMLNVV


Assays:
potato lectin (Sigma) [1] = target: T1, potato lectin (Sigma); assay: VHH-coupled Uvitex microcapsules retained on potato lectin-coated wells; 100% surface coverage
potato lectin (Sigma) [2] = target: T1, potato lectin (Sigma); assay: VHH-coupled Uvitex microcapsules retained on potato lectin-coated wells; 20% surface coverage
potato lectin (Sigma) [3] = target: T1, potato lectin (Sigma); assay: VHH-coupled Uvitex OB microcapsules retained on potato lectin-coated wells; 4% surface coverage
potato lectin (Sigma) [4] = target: T1, potato lectin (Sigma); assay: VHH-coupled lambda-cyhalothrin microcapsules retained on potato lectin-coated wells; 100% surface coverage
potato lectin (Sigma) [5] = target: T1, potato lectin (Sigma); assay: VHH-coupled lambda-cyhalothrin microcapsules retained on potato lectin-coated wells; 20% surface coverage
potato lectin (Sigma) [6] = target: T1, potato lectin (Sigma); assay: VHH-coupled lambda-cyhalothrin microcapsules retained on potato lectin-coated wells; 4% surface coverage
potato lectin (Sigma) [7] = target: T1, potato lectin (Sigma); assay: VHH-coupled Uvitex OB microcapsules retained on potato lectin-coated wells; 100% surface coverage
potato lectin (Sigma) [8] = target: T1, potato lectin (Sigma); assay: VHH-coupled Uvitex microcapsules retained on potato lectin-coated wells; 4% surface coverage
potato lectin (Sigma) [9] = target: T1, potato lectin (Sigma); assay: VHH-coupled Uvitex OB microcapsules retained on potato lectin-coated wells; 20% surface coverage
unrelated antigens [10] = assay: VHH-coupled Uvitex microcapsules retained on wells coated with unrelated antigen; 100% surface coverage
potato lectin (Sigma) [11] = target: T1, potato lectin (Sigma); assay: VHH-coupled Uvitex microcapsules on potato lectin-coated wells; 25-fold less microcapsules applied
Method: An ELISA-like assay was performed using high bind half area microplates (Greiner Bio-One) coated with 5 μg/well potato lectin. Control wells included blank wells or wells coated with unrelated antigens. Plates were washed three times with PBS with 0.05%-TWEEN®-20 and blocked with 5% skimmed milk in PBS for 1 to 2 hours. VHH-coupled Uvitex-containing microcapsules were diluted to appropriate densities in 1% skimmed milk in PBS with 0.05%-TWEEN®-20. Five-fold serial dilution series were prepared and allowed to bind to the surface to compare binding of microcapsules coupled with monovalent or bivalent VHH. Microcapsules were added to the antigen-coated or control wells and allowed to bind for 1 hour. Unbound microcapsules were removed by washing five times with PBS with 0.05%-TWEEN®-20. The bottoms of ELISA plate wells were analyzed for bound microcapsules on a macrozoom microscope system (Nikon). Microcapsules were counted using Volocity image analysis software (Perkin Elmer). A DAPI filter was used to visualize Uvitex microcapsules.
The surface area of microcapsules with coupled bivalent VHH was 15-fold above the surface area of blank microcapsules applied at this microcapsule density while the surface area of microcapsules with monovalent VHH was only six-fold above the surface area of blank microcapsules applied at this microcapsule density. […]

unrelated antigens [12] = assay: VHH-coupled Uvitex microcapsules retained on wells coated with unrelated antigen; 20% surface coverage
unrelated antigens [13] = assay: VHH-coupled Uvitex microcapsules retained on wells coated with unrelated antigen; 4% surface coverage

surface area of bound microcapsules (potato lectin (Sigma) [1])	surface area of bound microcapsules (potato lectin (Sigma) [2])	area of bound microcapsules (potato lectin (Sigma) [3])	counts of bound microcapsules (microcapsules) (potato lectin (Sigma) [4])	counts of bound microcapsules (microcapsules) (potato lectin (Sigma) [5])	counts of bound microcapsules (microcapsules) (potato lectin (Sigma) [6])	area of bound microcapsules (potato lectin (Sigma) [7])	surface area of bound microcapsules (potato lectin (Sigma) [8])	area of bound microcapsules (potato lectin (Sigma) [9])	surface area of bound microcapsules (unrelated antigens [10])	fold of surface area above blank microcapsules (potato lectin (Sigma) [11])	surface area of bound microcapsules (unrelated antigens [12])	surface area of bound microcapsules (unrelated antigens [13])	Molecule
142	43.5	7.53	828	709	348	16.7	19.2	35.4					unrelated VHH
									45.7	15 fold	22.1	15	Bivalent VHH 3E6 (VHH, Built from the general description of the bivalent constructs (two VHH in tandem); Tested covalently coupled to Uvitex microcapsules) QVQLQESGGGLVQPGGTLSLSCAASGFNVRWYGMGWFRQAPGKEREGVACISALQETTAYADSVKGRFTLSRDNPKNTLSLQMNNLQPEDTGVYYCATTDCDDSSRMTYTSYLGQGTQVTVSSGGGGSGGGSQVQLQESGGGLVQPGGTLSLSCAASGFNVRWYGMGWFRQAPGKEREGVACISALQETTAYADSVKGRFTLSRDNPKNTLSLQMNNLQPEDTGVYYCATTDCDDSSRMTYTSYLGQGTQVTVSSAAAEQKLISEEDLNGAAHHHHHH
